Patent US20190248902A1 (published 2019)

T1: recombinant, soluble human ASGR-1 (human, UniProt P07306 62-291)
T1 construct: biotinylated in the binning assay; also called soluble huASGR-1; Soluble ASGR-1 (Amgen)
T1 sequence: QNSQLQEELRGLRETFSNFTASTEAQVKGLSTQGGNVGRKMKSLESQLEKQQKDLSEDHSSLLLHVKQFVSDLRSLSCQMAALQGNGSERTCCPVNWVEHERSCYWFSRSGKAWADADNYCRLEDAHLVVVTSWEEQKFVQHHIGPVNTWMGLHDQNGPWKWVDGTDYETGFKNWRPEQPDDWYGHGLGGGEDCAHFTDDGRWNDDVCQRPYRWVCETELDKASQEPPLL

B1: 29H8 (antibody, V domains shown)
VH: QVQLVQSGAEVQKPGASVKVSCKASGYTFTNYDINWVRQATGQGLEWMGWMNPNSGNTGYAQRFQGRVTMTRNTSISAAYMELSSLRSEDTAVYYCASSSGWYYFDYWGQGTLVTVSS
VL: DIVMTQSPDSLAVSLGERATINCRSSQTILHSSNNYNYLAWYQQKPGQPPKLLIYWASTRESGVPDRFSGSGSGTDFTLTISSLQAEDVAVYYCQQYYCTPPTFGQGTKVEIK
notes: hybridoma mAb
B2: 4A2 (antibody, V domains shown)
VH: QVQLVQSGTEVKKPGASVKVSCKASGYTFTNYDINWVRQATGQGLEWMGWMHPNSGNTGYAQKFQGRVTLTRNTSISTAYMELSSLRSEDTAVYYCASSSGWYYFDYWGQGTLVTVSS
VL: DIVMTQSPDSLAVSLGERATINCKSSQSILHSSNNNNYLAWFQQKPGQPPKLLLYWASTRESGVPDRFSGSGSGTDFTLTISSLQPEDVAVYYCQQYYNTPVTFGPGTKVGIK
notes: hybridoma mAb
B3: 65E9 (antibody, V domains shown)
VH: not shown
VL: SYELTQPPSVSVSPGQTASITCSGDKLGNKYDYWYQQKPGQSPVLVIYQDRKRPSGIPERFSGSNSGNTATLTISGTQAMDEADYYCQAWDNSTVVFGGGTKLTVL
notes: hybridoma mAb
B4: 59F2 (antibody, V domains shown)
VH: EVQLVESGGGLVQPGGSLRLSCGASGFTFSSYSMNWVRQAPGKGLEWVSYISGSSNIIYYTDSVKGRFTISRDNAKNSLYLQMNSLRDEDTAVYYCARADTPMVLYFYGMDVWGQGTTVTVSS
VL: SYELTQPPSVSVSPGQTASITCSGDKLGDKYASWYQQRPGQSPVLVIYQDNKRPSGIPERFSGSNSGNTATLTISGTQAMDEADYYCQAWDNNTVVFGGGTKLTVL
notes: hybridoma mAb
B5: 58G11 (antibody, V domains shown)
VH: EVQLVESGGGLVQPGGSLRLSCAASGFTFSSYSMNWVRQAPGKGLEWISYISTSSSTIFYADSVKGRFTISRDSAKNSLYLQMNSLRDEDTAVYYCARGDTAMVLYYYGMDVWGQGTTVTVSS
VL: SYELTQPPSVSVSPGQTASITCSGDKLGDKYASWYQQKPGQSPVLVIYQDNKRPSGIPERFSGSNSGNTATLTISGTQAMDEADYYCQAWNNNTVMFGGGTKLTVL
notes: hybridoma mAb
B6: 52H1 (antibody, V domains shown)
VH: QVQLVESGGGVVQPGRSLRLSCAASGFTFSGYGMHWVRQAPGKGLEWVAVIWYDGSNKYYADSVKGRFTISRDNSKNTLYLQMNSLRAEDTAVYYCARDRVYCSSSSCSYYYYYYGMDVWGQGTTVTVSS
VL: SYELTQPPSVFVSPGQTASITSSGDKLGDKYVSWYQQKPGQSPVLVIYQDRKRPSGIPERFSGSNSGNTATLTISGTQAMDEADYYCQAWDNSTVVFGGGTKLTVL
notes: hybridoma mAb
B7: 60D2 (antibody, V domains shown)
VH: EVQLVESGGGLVQPGGSLRLSCGASGFTFSSYSMNWVRQAPGKGLEWVSYISESSNIIYYTDSVKGRFTISRDNAMNSLYLQMNSLRDEDTAVYYCARADTPMVLYFYGMDVWGQGTTVTVSS
VL: SYELTQPPSVSVSPGQTASITCSGNKLGDKYASWYQQRPGQSPVLVIYQDNKRPSGIPERFSGSNSGNTATLTISGTQTMDEADYYCQAWDNNTVVFGGGTKLTVL
notes: hybridoma mAb
B8: 72B4 (antibody, V domains shown)
VH: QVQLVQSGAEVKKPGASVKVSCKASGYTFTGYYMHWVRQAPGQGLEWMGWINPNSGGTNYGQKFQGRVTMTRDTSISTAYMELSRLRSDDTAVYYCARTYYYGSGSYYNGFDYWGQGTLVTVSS
VL: SYELTQPPSVSVSPGQTASITCSGDKLGDKYAWWYQQRPGQSPVLVIYEDRKRPSGIPERFSGSNSGNTATLTISGTQAMDEADYYCQAWDNSTVVFGGGTKLTVL
notes: hybridoma mAb
B9: 4B3 (antibody, V domains shown)
VH: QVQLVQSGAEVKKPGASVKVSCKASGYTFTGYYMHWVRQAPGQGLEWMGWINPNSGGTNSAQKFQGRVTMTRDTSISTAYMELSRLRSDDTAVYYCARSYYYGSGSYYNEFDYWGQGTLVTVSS
VL: SYELTQPPSVSVSPRQTVSITCSGDKLGDKYACWYQQKPGQSPVLVIYQDRKRPSGIPERFSGSNSGNTATLTISGTQAMDEADYYCQAWDNNTVIFGGGTKLTVL
notes: hybridoma mAb
B10: 5E5 (antibody, V domains shown)
VH: QVQLVESGGGVVQPGRSLRLSCAASGFTFSNYVMHWVRQAPGKGLEWVAVIWYDGSNKYYADSVKGRFTISRDNSKNTLYLQMNSLRAEDTAVYYCTREVYSSGWYDYGMDVWGQGTTVTVSS
VL: DIQMTQSPSSLSASVGDRVTITCRASQGIRNDLGWYQQKPGKAPKRLIYAASSLQSGVPSRFSGSGSGTEFTLTISSLQPEDFATYYCLQHYSYPRTFGQGTKVEVK
notes: hybridoma mAb
B11: 60E8 (antibody, V domains shown)
VH: QVQLQESGPGLVRPSATLSLTCTVSGGSISRSSYYWGWIRQPPGKGLEWIGSIYYSGSASYNPSLKSRVTISVDTSENQFSLRLSSVTAADTAVYYCARLDSGWSFDYWGQGTLVTVSS
VL: DIQMTQSPSSLSASVGDRVTFTCRASQGIRNDLGWFQQKPGKAPKRLIYAASSLQSGVPSRFSGSGSGTEFTLTISSLQPEDFATYYCLQHSSYPLTFGGGTKVEIK
notes: hybridoma mAb
B12: 45B4 (antibody, V domains shown)
VH: QVQLVESGGGVVQPGRSLRLSCAASGFTFSDCVMHWVRQAPGKGLEWVAVIWYDGSNKYYADSVKGRFTISRDNSKNTLYLQMNSLRAEDTAVYYCARERYSSGLYDYGMDVWGQGTTVTVSS
VL: DIQMTQSPSSLSASVGDRVTFTCRASQGIRDDLGWYQQKPGKAPKRLIYAASSLQSGVPSRFSGSGSGTEFTLTISSLQPEDFATYYCLQHYSYPRTFGQGTKVEIK
notes: hybridoma mAb
B13: 7G4 (antibody, V domains shown)
VH: QVQLVESGGGVVQPGRSLRLSCAASGFTFNNYVMHWVRQAPGKGLEWVAVIWYDGSNKYYADSVKGRFTISRDNSKNTLYLQMTSLRAEDTAVYYCAREKYSSNWYDYGMDVWGQGTTVTVSS
VL: DIQMTQSPSSLSASVGDRVTITCRASQGIRNDLGWYQQRPGKAPKRLIYAASSLQSGVPSRFSGSGSGTEFTLTISSLQPEDSATYYCLHQYSYPRTFGQGTKVEIK
notes: hybridoma mAb
B14: 29E2 (antibody, V domains shown)
VH: QVQLVESGGGVVQPGRSLRLSCAASGFTFSNCVMHWVRQAPGKGLEWVAVIWYDGSNKYYADSVKGRITISRDNSKNTLYLQMNSLRAEDTAVYYCAREEYSSGWYDYGMDVWGQGTTVTVSS
VL: DIQMTQSPSSLSASVGDRVTITCRASQAIRNDLGWYQQRPGKAPKRLIYAASSLQSGVPSRFSGSGSGTEFILTISSLQPEDFATYYCLQHYNYPRSFGQGTKLEIK
notes: hybridoma mAb
B15: 32D6 (antibody, V domains shown)
VH: QVQLVESGGGVVQPGRSLRLSCAASGFTFSSYGMHWVRQAPGKGLEWVTVIWHDGSNAYYADSVKGRFTISRDNSKNTLYLQMNSLRAEDTAVYYCARENSSSYYFDYWGQGTLVTVSS
VL: DIQMTQSPSSLSTSVGDRVTITCRASQNIISYLNWYQQKPGKAPKLLMYVASRLQSGVPSRFSGSGSGTDFTLTISSLQAEDFATYYCQQSYSTPYTFGGGTKVAIK
notes: hybridoma mAb
B16: 50G9 (antibody, V domains shown)
VH: QVQLVESGGGVVQPGRSLRLSCAASGFIFSSYGMHWVRQAPGKGLEWVAVISQDGIIRYYADSVKGRFTISRDNSKNTLYLQMNSLRAEDTAVYYCARDVKQWLVRTYGMDVWGQGTTVTVSS
VL: SYELTQPPSVSVSPGQTASITCSGDKLGDKYACWYQQKPGQSPVLVIYQDSKRPSGIPERFSGSNSGNTATLTISGTQARDEAEYYCQARNSRRGVFGGGTRLTVL
notes: hybridoma mAb

Legend:
[1] = molecular target: T1, recombinant, soluble human ASGR-1; assay: Octet BLI dissociation, pH 5.6 minus calcium
Procedure: (§1) The relative dissociation of ASGR-1 from antibodies was measured using a label-free assay on an OctetHTX instrument (Fortebio). Antibody samples were captured on anti-HuFc kinetic biosensors (ForteBio cat #18-5064) at 5 ug/mL in assay buffer (10 mM Tris, 0.1% Triton, 150 mM NaCl, 1 mg/mL BSA, 1 mM CaCl2, pH7.4) for three minutes. A one minute baseline stabilization step was performed in assay buffer. Soluble ASGR-1 (Amgen) at 6 ug/ml in assay buffer was added and association to the antibodies was monitored for two minutes. Subsequent dissociation of ASGR-1 from the antibodies was performed by incubating the ASGR-1-mAb complexes for 10 minutes under each of the following conditions:
(§2) The binding signal at the end of the 2 minute association phase for each dissociation experiment was set to 100% and used to represent the maximal level of ASGR-1 binding. After 1 minute of dissociation, the percentage of ASGR-1 remaining bound was calculated. The lower the percent remaining at a given time point indicates increased levels of dissociation in response to the test conditions (ie. different pH and/or calcium concentrations). The change in the percentage of ASGR-1 remaining bound in response to each test condition relative to the percent remaining in the control conditions (ie. pH 7.4+calcium) was determined. Cut-offs for an antibody to be categorized as being sensitive to a particular condition were set to >10% (ie. if >10% of the ASGR-1 dissociates from the antibody under a particular test condition compared to control condition, it was deemed sensitive to that condition). The analysis was done using the 1 minute dissociation time point (except for mAb 149A1 which was binned based on the 4 minute dissociation time point). Using this analysis, the ASGR-1-binding, receptor-ligand blocking antibodies were separated into groups according to their dissociation profiles in response to pH and calcium (Table 7.3). Antibodies belonging to each category were observed.

[2] = molecular target: T1, recombinant, soluble human ASGR-1; assay: Octet BLI dissociation, pH 7.4 minus calcium
Procedure: as §1, §2

[3] = molecular target: T1, recombinant, soluble human ASGR-1; assay: Octet BLI dissociation, pH 5.6 plus calcium
Procedure: as §1, §2

Binder | % Change Compared to pH 7.4 + Calcium [1] [%] | % Change Compared to pH 7.4 + Calcium [2] [%] | % Change Compared to pH 7.4 + Calcium [3] [%]
B1 | 2 | 2 | -2
B2 | 1 | 1 | -3
B3 | 35 | 22 | 30
B4 | 74 | 48 | 52
B5 | 51 | 38 | 12
B6 | 10 | 5 | -1
B7 | 49 | 20 | 42
B8 | 43 | 32 | 26
B9 | 45 | 12 | 33
B10 | 42 | 7 | 18
B11 | 18 | 3 | 11
B12 | 23 | 4 | 10
B13 | 7 | 2 | 1
B14 | 38 | 5 | 25
B15 | 55 | 26 | 33
B16 | 44 | 37 | 62
